According to the nanobody polyreactivity screen of Harvey et al. (2022):

Test: yeast display, Sf9 membrane polyspecificity reagent, FACS + sequencing; frameworks hold sequencing errors
How it was run: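 Using colony PCR, genes from sorted yeast display clones were amplified, then sequenced on MiSeq at 2 × 250 and filtered by CDR length. The clones had been stained with 10% biotinylated, detergent-solubilized Sf9 membrane reagent for 1 hour at 4 °C and sorted by FACS into low and high (top ~1%) gates on anti-HA and streptavidin fluorescence. Polyreactivity labels come from the gate of origin.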

Sequence	polyreactivity (PSR sort gate)
QVQLVESGGGLVQAGGSLRLSCAASGYTFKAYAMGWYRQAPGKERELVGGISRSGGSTYYADSVKGRFTISRDNAKNTVYLQMNSLKPEDTAVYYCAADSFSWETVVPSVFEFDYWGQGTQGTVSS	low polyreactivity
QVQLVESGGGLVQAGGSLRLSCAASGYTFKTYAMGWYRQAPGKERELVAAIRTSGGSTYYADSVKGRFTISRDNAKNTVYLQMNSLKPEDTAVYYCAAAFNYYGSLYDYWGQGTQVTVSS	high polyreactivity
QVQLVESGGGLVQAGGSLRLSCAASGYTFLAYAMGWYRQAPGKERELVAAISRSGVSTYYADSVKGRFTISRDNAKNTVYLQMNILKPEDTAFYYCAKGVRYQQYHIMYYWGQGTQVTVSS	high polyreactivity
QVQLVESGGGLVQAGGSLRLSCAASGYTFLVYTKGWYRQAPGKERELVATISWSGTSTDYADSVKGRFTISRDNAKNTVYLQMNSLKPEDTAVYYCNAKYPRAYLYGYKLFDSWGQGTQVTVSS	high polyreactivity
QVQLVESGGGLVQAGGSLRLSCAASGYTFNWYAMGWYRQAPGKERELVAAISWRSGRTYYADSVKGRFTISRDNAKNTVYLQMNSLKPEDTAVYYCAVTTTSGAPGGSYYYWGQGTQVTVSS	high polyreactivity
QVQLVESGGGLVQAGGSLRLSCAASGYTFNYYAMGWYRQAPGKERELVAAISASSDSTYYADSVKGRFTISRDNAKNTVYLQMNSLNPEDTAVYYCAAVSGRYRIYRYDYWGQGTQVTVSS	low polyreactivity
QVQLVESGGGLVQAGGSLRLSCAASGYTFPDYAMGWYRQAPGKERELVADITSAGNTYYADSVKGRFTISRDNAKNTVYLQMNSLKPEDTAVYYCNKDDLWENGISYSSPYRLDHWGQGTQVTVSS	low polyreactivity
QVQLVESGGGLVQAGGSLRLSCAASGYTFPIYAMGWYRQAPGKERELVATISSGGRTNYADSVKGRFTISRDNAKNTVYLQMKSLKPEDTAVSYCNARRLGWHALYLYDYWGQGTQVTVSS	high polyreactivity
QVQLVESGGGLVQAGGSLRLSCAASGYTFPIYAMGWYRQAPGTERELVAGISKNGGSTYYADSVKGRFTISRDNAKNTVYLQMNSLKPVDTAVYYCNASAWGRPYYLGSYFVYPGYEYWGQGTEVTVSS	low polyreactivity
QVQLVESGGGLVQAGGSLRLSCAASGYTFPLYAMGLYRQAPGKEWELVADINIGGASTYYADSVKGRFTISRDHAKNTVYLQMNSLKPEDTAVYYCAKEYYDGYFPTFDYDYWGQGTQVTGSS	low polyreactivity
QVQLVESGGGLVQAGGSLRLSCAASGYTFPLYAMGWYRQAPGKERELVATISSSGSRTYYADSVKGRFTISRDNAKNTVYLQMNSLKPEDTAVYYCAARYRAYVKLTSYDWGQGTQVTVSS	high polyreactivity
QVQLVESGGGLVQAGGSLRLSCAASGYTFPQYAMGWYRQAPGKERELVAAITRRGGSTYYADSVKGRFTISRDNAKNTVYLQMNSLKPEDTAVYYCASDSYPYSLGGDYWGQGTQVTVSS	high polyreactivity
QVQLVESGGGLVQAGGSLRLSCAASGYTFPSNAMGWYRQAPGKERELVAAISSGGRTNYADSVKGRFTISRDNAKNTVYLQMNSLKPEDTGVYYCNADGGPCYPRAYDYWGQGTQVTVSS	low polyreactivity
QVQLVESGGGLVQAGGSLRLSCAASGYTFQGYAMGWYRQAPGKERELVAGISRSGGRTYYADSVKGRFTISRDNAKNTVYLQMNSLKPEDTAVYYCAASYQVRYDYWGQGTQVTVSS	high polyreactivity
QVQLVESGGGLVQAGGSLRLSCAASGYTFQKYGMGWYRQAPGNERELVAAITRSSGNTYYADSVKGRFTISRDNAKNTVYLQMNSLKPEDTAVDYCAAYYWGGVKYNYWGQGTQVTVSS	high polyreactivity
QVQLVESGGGLVQAGGSLRLSCAASGYTFQYYAMGWYRQAPGKERELVAAISRGVGSTTYYADSVKGRFTISRDNAKNTVYLQMNSLKPEDTAVYYCNHDFLGDEYDYWGQGTQVTVSS	high polyreactivity

Sequence	polyreactivity (PSR sort gate)
QVQLVESGGGLVQAGGSLRLSCAASGYTFRGYAMGWYRQAPGKEREFVAAMNWSDGSTYYADSVKGRFTISRDNPKNTVYLQMNSLKPEDTAVYYCNADQYYRVPDNYWGQGTQVTVSS	low polyreactivity
QVQLVESGGGLVQAGGSLRLSCAASGYTFRHYVMGWYRQAPGKERELVAAITYSGGSTYYADSVKGRFTISRDNAKNTVYLQMNSLKPEDTAVYYCAARRRRSDPYDFWGQGTQVTVSS	high polyreactivity
QVQLVESGGGLVQAGGSLRLSCAASGYTFRYNAMGWYRQAPGKERELVAAISSSGGRTYYADSVKGRFTISRDYAKNTVYLQMNSLKPEDTAVYYCAADSSVKYWRYQAAYDYWGQGTQVTVSS	high polyreactivity
QVQLVESGGGLVQAGGSLRLSCAASGYTFSAYAMGWYRQAPGKERELVAVINRSGVRTYYADSVKGRFTISRDNAKNTVYLQMNSLKPEDTAVYYCAADYRNTVLEMDYWGQGTQVTVSS	high polyreactivity
QVQLVESGGGLVQAGGSLRLSCAASGYTFSGYAMGWYRQAPGKERELVAAISKRGGSTYYADSVKGRFTISRDNAKNTVYLQMNSLKPEDTAVYYCAKRSGYRSHYGYWGQGTQVTVSS	high polyreactivity
QVQLVESGGGLVQAGGSLRLSCAASGYTFSNNAMGWYRQAPGKERELFPTINSGGSTNYADSVKGRFTISRDNAKNTVYLQMNSLKPEDTAVYYCAAREDLYLYYNGQRVQYDYWGQGTQVTVSS	low polyreactivity
QVQLVESGGGLVQAGGSLRLSCAASGYTFSRYAMGWYRPAPGKERELVAAITGRGGSTYYADSVKGRFTISRDNAKNTVYLLMNSLKPEDTAVYYCAVGRYPYVWRYYYWGQGTQVTVSS	high polyreactivity
QVQLVESGGGLVQAGGSLRLSCAASGYTFSRYAMGWYRQAPGKERELVADISRSGGSTDYADSVKGRFTISRDNAKNTVYLQMNSLKPEDTAVYYCAKGSWWGYYSYGFDYWGQGTQVTVSS	high polyreactivity
QVQLVESGGGLVQAGGSLRLSCAASGYTFTINTMGWYRQAPGKERELVAAITWRGGSTYYADSVKGRFTISRDNANNTVYLQMNSLKPEDTAVYYCNKDYYITTTTFDYWGQGTQVTVSS	low polyreactivity
QVQLVESGGGLVQAGGSLRLSCAASGYTFTIYAMGWYRKAPGKERELVAAITGRGGRTNYADSVKGRFTISRDNAKNTVYLQMNSLKPEDTAVYYCNAVTKVVYHGPYGYDYWGQGTQVTVSS	high polyreactivity
QVQLVESGGGLVQAGGSLRLSCAASGYTFTSNDMGWYRQAPGKERELVAAITWSGGTTYYADSVKGRFTISRDNAKNTVYLQMNSLKPEDTAVYYCAAESTLPIIDRDDYWGQGTQVTVSS	low polyreactivity
QVQLVESGGGLVQAGGSLRLSCAASGYTFVIYAMGSYRQAPGKERELVAAITTIGGRTYYADSVKGRFTISRDNAKNTVYLQMNSLKPEDTAVYYCAADIRSNRLYDGGYWGQGTQVTVSS	low polyreactivity
QVQLVESGGGLVQAGGSLRLSCAASGYTFVYNALGWYRQAPGKEREFVAAITWSGTSTRYADSVKGRFTISRDNAKNTVYIQMTSLQPEDTAVYYCAARRRSAQSGSYNHWGQGTQVTVSS	high polyreactivity
QVQLVESGGGLVQAGGSLRLSCAASGYTFVYNGMGWYRQAPGKERELVAAITWGGAGTYYADSVKGRFTISRDNAKNTVYLQMISLKPEDTSVYYCAPPSPRSRAYTYRGDYWGQGTQVTVSS	low polyreactivity
QVQLVESGGGLVQAGGSLRLSCAASGYTFVYYAMGLYRQAPGKERELVAAITSGGRTNYADSVKGRFTISRDNAKNTVYLQMKSLKPEDTAVYYCNVDGYYLFVRGYEYWGQGTQVTVSS	low polyreactivity
